Test results taken from publication PMC7819272.
Where no end group is shown, it is not given here. The star is where a group is joined. Biotin = O=C1N[C@H]2[C@H](CS[C@H]2CCCCC(=O)*)N1

Molecular target: HLA-DR3 (HLA-DRβ1-Arg74 positive) on the surface of VAVY cells (human (endogenous in VAVY))
Test: flow cytometry on cells

| Binder | percent binding to DRβ-Arg74-positive cells at 10 μM peptide [%] | percent binding to DRβ-Arg74-positive cells at 20 μM peptide [%] | percent binding to DRβ-Arg74-positive cells at 50 μM peptide [%] |
| --- | --- | --- | --- |
| Biotin-FNGTKLDAVYLNKNKYLTVI [TSHR197–216 peptide, biotinylated] | 14.7 | 19.4 | 72.9 |
| Biotin-GIFNTGLKMFPDLTKVYST [TSHR132–150 peptide, biotinylated] | 5.1 | 21.7 | 51 |
